Reference: patent publication US20090074766A1, “Methods of inhibiting HIV-2 infection” (priority 2007, published 2009)
Values joined by “and” are separate entries in the source; they are usually repeats but may differ in a detail not shown here. Equal entries are not always repeated.

Legend:
HIV-1 = details: treatment period of 10-14 days, dose-dependent; cited from earlier work
HIV-1 JR-FL = experiment: Previous studies (300-TD-028): HIV-1 replication in PBMC quantitated by p24 ELISA, JR-FL; type: cell-based
Protocol: The EC values were measured by p24 ELISA in previous studies, according to published methods. Because the p24 ELISA cannot efficiently quantitate p24 from the HIV-2 isolates used in this study, a commercial ELISA that measures reverse transcriptase was chosen as a readout for both the HIV-2 and HIV-1 infection assays in the present study.

R5X4 HIV-2 310342 = experiment: Inhibition of replication in PBMC cultures, RT activity readout: HIV-2 310342; type: cell-based
Protocol: (§1) Viruses: All virus isolates were grown and titered exclusively in stimulated PBMC as described previously. […] The HIV-2 isolates used in this study have been previously described (Owen, S. M., Ellenberger, D., Rayfield, M., Wiktor, S., Michel, P., Grieco, M. H., Gao, F., Hahn, B. H., and Lai, R. B. 1998. Genetically Divergent Strains of Human Immunodeficiency Virus Type 2 Use Multiple Coreceptors for Entry. J Virol 72:5425-5432) and were obtained from the NIH AIDS Research and Reference Reagent Program.
(§2) PA14 (Lot # DF-021204) was produced for reagent use in the Research & Development laboratories of Progenics Pharmaceuticals Inc.
Inhibition of HIV-1 and HIV-2 replication in PBMC cultures: PBMC were isolated from 34 healthy blood donors with Ficoll-Hypaque (all media from Cellgro, Herndon, Va.) and depleted of CD8+ cells using RosetteSep CD8 depletion cocktail (StemCell Technologies) according to the manufacturer's instructions. […] Reverse Transcriptase (RT) activity was measured on Day 7 post infection (pi) for HIV-1 and Day 10 pi for HIV-2 by the Reverse Transcriptase Assay, Colorimetric kit, #11 468 120 910, Roche (Switzerland) according to the manufacturer's instructions with the following exception: neither ultracentrifugation nor PEG precipitation of the culture supernatants was performed before viral lysis. […]

[1] = Phase 1b clinical trial: pharmacokinetics (serum PRO 140 by ELISA); details: non-compartmental analysis, HIV-infected subjects
R5 HIV-1 JR-FL = experiment: Inhibition of replication in PBMC cultures, RT activity readout: HIV-1 JR-FL; type: cell-based
Protocol: as §1, §2
(§3) Inhibition of HIV-1 and HIV-2 replication in PBMC cultures: PBMC were isolated from 34 healthy blood donors with Ficoll-Hypaque (all media from Cellgro, Herndon, Va.) and depleted of CD8+ cells using RosetteSep CD8 depletion cocktail (StemCell Technologies) according to the manufacturer's instructions. Equal numbers of cells from each donor were then separately stimulated with 5 ug phytohemagglutinin/ml (Sigma, St. Louis, Mo.) or with surface-immobilized anti-CD3 antibody OKT3 in RPMI 1640 medium containing 10% fetal calf serum, 100 Units of interleukin-2/ml (NIH AIDS Research and Reference Reagent Program), glutamine, and antibiotics (PBMC culture medium) as previously described. After 72 hours, equal numbers of PBMC stimulated by one of these two methods from each donor were combined for use in infection assays as follows. […] The virus inoculum was adjusted to 400 to 2,000 times the TCID50 per ml in PBMC culture medium, and a 50-ul aliquot was added to each culture. The inhibitory doses refer to the concentrations of the agents present at this point in the culture, when virus, cells, and inhibitors were all present at their final concentrations. Reverse Transcriptase (RT) activity was measured on Day 7 post infection (pi) for HIV-1 and Day 10 pi for HIV-2 by the Reverse Transcriptase Assay, Colorimetric kit, #11 468 120 910, Roche (Switzerland) according to the manufacturer's instructions with the following exception: neither ultracentrifugation nor PEG precipitation of the culture supernatants was performed before viral lysis.
(§4) The inhibition data were analyzed using GraphPad Prism software (GraphPad Software, San Diego, Calif.). A 4-parameter logistic fit was used calculate the concentration of inhibitor that afforded a 50% and a 90% reduction in RT activity. […] The % inhibitions where best-fit curve reached a top plateau, also as calculated by GraphPad Prism software, are reported as well as maximum percent inhibition (MPI). […] Inhibition curves with a poor sigmoid fit (R^2<0.7) were excluded from data analysis.

R5 HIV-2 A2267 = experiment: Inhibition of replication in PBMC cultures, RT activity readout: HIV-2 A2267; type: cell-based
Protocol: as §1, §2, §3, §4

R5 HIV-2 310340 = experiment: Inhibition of replication in PBMC cultures, RT activity readout: HIV-2 310340; type: cell-based
Protocol: as §1, §2, §3, §4

CCR5 lymphocytes = experiment: Phase 1b clinical trial: coating of CCR5 lymphocytes (flow cytometry ex vivo)
[2] = human, in vivo
Protocol: Individuals were treated in sequential, dose-rising cohorts of 5 subjects (4 active and 1 placebo) each and evaluated for up to 120 days post-treatment. […] Safety assessments consisted of monitoring the following: vital signs (blood pressure, pulse, temperature, etc; hematology (hemoglobin, hematocrit, leukocytes, platelets, etc.); serum chemistries (AST/ALT, alkaline phosphatase, BUN, creatinine, etc.); urinalysis (pH, specific gravity, protein, glucose, leukocytes, etc.); and ECGs (12-lead).

CCR5 chemokine signaling = experiment: RANTES-induced calcium mobilization in L1.2-CCR5 cells vs HIV-1JR-FL replication in PBMC (FIG. 4); type: cell-based, human; details: FIG. 4 legend, result in words
Excerpt: Similar results were obtained for MIP-1α and MIP-1β.

R5 HIV-2 A2270 = experiment: Inhibition of replication in PBMC cultures, RT activity readout: HIV-2 A2270; type: cell-based
Protocol: as §1, §2, §3, §4

[3] = individual assays (Source), previous study, p24 ELISA
[4] = previous studies n = 33, median
[5] = HIV-1 JR-FL, R5, median, current study n = 5
[6] = JR-FL, current study n = 5, mean

COC[C@@H](c1ccc(C(F)(F)F)cc1)N1CCN(C2(C)CCN(C(=O)c3c(C)ncnc3C)CC2)C[C@@H]1C [SCH-D, 1-[(4,6-dimethyl-5-pyrimidinyl)carbonyl]-4-[4-[2-methoxy-1(R)-4-(trifluoromethyl)phenyl]ethyl-3(S)-methyl-1-piperazinyl]-4-methylpiperidine]
mean reductions in HIV-1 RNA levels (HIV-1): ~1 log10

B1: PRO 140: humanized IgG4,κ anti-CCR5 monoclonal antibody, humanized version of murine mAb PA14 (antibody, chains of the INN, looked up, V domains shown)
VH: EVQLVESGGGLVKPGGSLRLSCAASGYTFSNYWIGWVRQAPGKGLEWIGDIYPGGNYIRNNEKFKDKTTLSADTSKNTAYLQMNSLKTEDTAVYYCGSSFGSNYVFAWFTYWGQGTLVTVSS
VL: DIVMTQSPLSLPVTPGEPASISCRSSQRLLSSYGHTYLHWYLQKPGQSPQLLIYEVSNRFSGVPDRFSGSGSGTDFTLKISRVEAEDVGVYYCSQSTHVPLTFGQGTKVEIK
EC50 (HIV-1 JR-FL; [3]): 0.37 µg/mL and 0.003 µg/mL and 0.03 µg/mL and 0.28 µg/mL and 0.13 µg/mL and 0.05 µg/mL and 0.97 µg/mL and 0.39 µg/mL and <0.001 µg/mL and 0.001 µg/mL and 1.8 µg/mL and 0.24 µg/mL and 0.14 µg/mL and 0.58 µg/mL and 0.45 µg/mL and 0.06 µg/mL and 0.72 µg/mL and 1.9 µg/mL and 0.61 µg/mL and 0.69 µg/mL and 0.12 µg/mL and 0.02 µg/mL and 2.7 µg/mL and 0.48 µg/mL and 0.04 µg/mL and <0.1 µg/mL and 0.43 µg/mL | EC90 (HIV-1 JR-FL; [3]): 3.4 µg/mL and 0.01 µg/mL and 18 µg/mL and 5.4 µg/mL and 2.2 µg/mL and 3.1 µg/mL and 12 µg/mL and 0.02 µg/mL and <0.001 µg/mL and 0.13 µg/mL and 0.52 µg/mL and >50 µg/mL and 0.93 µg/mL and 5.8 µg/mL and 8.1 µg/mL and 8.2 µg/mL and 2.1 µg/mL and 10 µg/mL and 11 µg/mL and 0.22 µg/mL and 3.7 µg/mL and 22 µg/mL and 1.2 µg/mL and 34 µg/mL | EC50 (mean) (HIV-1 JR-FL; previous studies n = 33, mean): <0.41 µg/mL | EC90 (mean) (HIV-1 JR-FL; previous studies n = 33, mean): >10 µg/mL | EC50 (median) (HIV-1 JR-FL; [4]): 0.13 µg/mL | EC90 (median) (HIV-1 JR-FL; [4]): 3.4 µg/mL | EC50 (median) (R5X4 HIV-2 310342): >100 µg/mL | EC90 (median) (R5X4 HIV-2 310342): >100 µg/mL | Terminal half life [1]: approximately 4 d | EC50 (median) (R5 HIV-1 JR-FL; [5]): 0.09 µg/mL | EC90 (median) (R5 HIV-1 JR-FL; [5]): 7.0 µg/mL | EC50 (mean) (R5 HIV-1 JR-FL; [6]): <0.97 µg/mL | EC90 (mean) (R5 HIV-1 JR-FL; [6]): 22 µg/mL | MPI (maximum percent inhibition) (R5 HIV-1 JR-FL; R5 HIV-1 JR-FL, individual assays (Source)): 100% and 103% and 101% and 110% | MPI, Median (R5 HIV-1 JR-FL; R5 HIV-1 JR-FL, median of assays with R^2 >= 0.7): 102% | EC50 (median) (R5 HIV-2 A2267; HIV-2 A2267, R5): 0.10 µg/mL | EC90 (median) (R5 HIV-2 A2267; HIV-2 A2267, R5): 98 µg/mL | MPI (maximum percent inhibition) (R5 HIV-2 A2267; R5 HIV-2 A2267, individual assays (Source)): 97% and 115% and 88% and 94% and 75% | MPI, Median (R5 HIV-2 A2267; R5 HIV-2 A2267, median of assays with R^2 >= 0.7): 94% | EC50 (median) (R5 HIV-2 310340; HIV-2 310340, R5): 4.7 µg/mL | EC90 (median) (R5 HIV-2 310340; HIV-2 310340, R5): >100 µg/mL | MPI: Maximum percent inhibition as determined from the plateau of the sigmoidal curve fit (R5 HIV-2 310340; Virus: R5 HIV-2 310340, individual experiments (Source)): 87% and 74% and 90% and 78% | MPI, Median (R5 HIV-2 310340; Virus: R5 HIV-2 310340, median of experiments, poor curve fits (R^2 < 0.7) excluded): 83% | depletion of CCR5+ lymphocytes (CCR5 lymphocytes): No depletion of CCR5+ lymphocytes | dose-limiting toxicity [2]: no dose-limiting toxicity | effect on HIV-1 vs chemokine signaling (CCR5 chemokine signaling): blocks HIV-1 but not chemokine signaling | EC50 (median) (R5 HIV-2 A2270; HIV-2 A2270, R5): 0.12 µg/mL | EC90 (median) (R5 HIV-2 A2270; HIV-2 A2270, R5): 3.5 µg/mL | MPI (maximum percent inhibition) (R5 HIV-2 A2270; R5 HIV-2 A2270, individual assays (Source)): 103% and 101% and 97% | MPI, Median (R5 HIV-2 A2270; R5 HIV-2 A2270, median of assays): 101%
